Tests used:
Assay in all cases: pull-down binding Z-score (relative to library population); higher = stronger binding
[1] = test system: G-clamp-N3 (biotin conjugate); details: RNA library: Library-1 (pre-miRNA loops + repeats)
Procedure, shortened: (§1)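 To score binding, a beads-only signal was subtracted, barcoded replicate probes were averaged with the highest and lowest dropped, and the value was converted to a Z-score using the library mean and standard deviation. The input was 1 μg of Cy5- or Cy3-end-labelled RNA library, heat-folded in phosphate/NaCl/KCl buffer and mixed for 60 min at 25 °C with streptavidin beads carrying 100 pmol of biotin-conjugated small molecule. Bound RNA was eluted in hot SDS and hybridised to a DNA barcode microarray at 55.5 °C for 20 h.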

[2] = test system: TO-3-N3 (biotin conjugate); details: RNA library: Library-2
Procedure, shortened: as §1

[3] = test system: TO-3-N3-2 (biotin conjugate); details: RNA library: Library-2
Procedure, shortened: as §1

[4] = test system: TO-N3 (biotin conjugate); details: RNA library: Library-2
Procedure, shortened: as §1

[5] = test system: TO-N3-2 (biotin conjugate); details: RNA library: Library-2
Procedure, shortened: as §1

Sequence	pull-down binding Z-score [1]	pull-down binding Z-score [2]	pull-down binding Z-score [3]	pull-down binding Z-score [4]	pull-down binding Z-score [5]
UCCUGAUCUGAUGGAAGUCAUGA [hsa-mir-7843]	-0.244	-0.312	-0.16	-0.0481	0.409
CUUGGGCCCAUUCCUUUCCUUACCCUAC [hsa-mir-6798]	-1.1	0.268	0.218	0.541	0.758
AAAAUUCAUGGCCUACAGCUGCCUCUUGCCAAACUGCACUGGAUUUU [hsa-mir-5010]	-1.45	-0.25	-0.176	-0.482	0.111
AGCGCGAAAGU [hsa-mir-1539]	0.0302	-0.0926	0.0743	0.054	0.55
UGUUUGUGUCUAAACUAUCAAACG [hsa-mir-122]	-0.679	-0.183	-0.158	-0.332	-0.625
UCCUCAGACCAGGUGGCUCCCGAGCCACCCCAGGCUGUAGG [hsa-mir-2392]	-1.09	-0.0269	-0.183	0.743	1.75
CUUAAUAGAUUAAUAUUUGUAAG [hsa-mir-506]	0.431	-0.743	-0.335	-0.877	-1.02
UGUAAGUUUGCGAUGAGACACUACA [hsa-mir-144]	-0.844	0.0531	0.297	0.405	0.341
ACACUGCGCUGCCCCAGACCCACUGU [hsa-mir-210]	-1.18	0.364	0.103	0.83	0.683
GAAGCACUGGUUAUGAUUUGCAUC [hsa-mir-3126]	-0.739	-0.087	0.159	0.0904	0.429
GUCAGUCCCAAUCUGAAUCCCACCAAAAUAGGUGGUAGAGGGUUGC [hsa-mir-4290]	-1.14	-0.204	0.249	0.0867	0.752
CUCAGGACAGCGGGUGUCAGCUUGCCUGAC [hsa-mir-6859-1_6859-3_6859-2_6859-4]	-0.377	0.665	0.241	1.12	1.4
ACGUCCAGUGGUGCAGAGGUAAUGGACGU [hsa-mir-1306]	2.13	0.0986	0.227	0.283	1.37
GUAUGAGUGCCACAGAGCCGUCAUAA [hsa-mir-9-3]	-0.99	0.938	-0.231	1.39	1.73
CCAUGUGAGUGAAGCCUGAUCAUCAUGUG [hsa-mir-8070]	-0.0843	-0.67	-0.318	-0.232	0.588
AAUGUCAGGGCCACCCCUGACCUU [hsa-mir-6837]	0.482	-0.431	-0.382	-0.481	-0.497
GUUUGGCAGGACAGUUUCCAAGC [hsa-mir-6779]	-0.893	-0.587	-0.323	-0.451	0.15
CCAUUAUUGCUACUGUUCAGCAGGUGCUGCUGGUGGUGAUGG [hsa-mir-1260b]	-0.182	0.0654	-0.25	0.244	-0.182
AGAGAUGAGCAUAAAGUUUUU [hsa-mir-6086]	-1.36	0.0616	-0.12	-0.104	-0.389
UAGGGCUGGAUGGUAGGGCCCA [hsa-mir-6890]	2.15	0.343	0.343	0.642	1.13
AGAUCUAUGUCAUAUAUACAGAUAU [hsa-mir-3924]	-0.51	0.902	0.268	0.742	-0.356
UCAAACAAGUUUCCAAAUUGUUUGA [hsa-mir-488]	-0.178	0.554	-0.496	0.194	-1.02
GAGUAUUUUAAUACUGGCAUACUC [hsa-mir-1263]	-0.0468	-0.584	0.095	-0.837	-0.98
AAGCAGGGUUGGGCCUGGUU [hsa-mir-7641-1]	-1.23	-0.192	-0.112	-0.00685	0.549
CAUCCCGGACGGCCUGUGAGGGAUG [hsa-mir-4787]	1.57	0.8	0.0114	1.1	0.952

Sequence	pull-down binding Z-score [1]	pull-down binding Z-score [2]	pull-down binding Z-score [3]	pull-down binding Z-score [4]	pull-down binding Z-score [5]
GGGAAGGAGAAGGGACGCUUCCC [hsa-mir-3127]	2.68	0.262	0.167	0.268	0.895
AAGGUGGAGUUCUGGGUGCUGUUUUCCCACUCU [hsa-mir-378i]	-0.335	0.0547	0.299	0.173	0.429
CAACAGUUCUGUAGCGCAAUUGUG [hsa-mir-203a]	0.267	0.0356	0.0351	0.622	1.07
GGGUCGUGGGAAAGUGUUGACCC [hsa-mir-4655]	1.79	0.166	0.276	0.5	0.588
UUUACCAUUACUUUCAAUGGCAAA [hsa-mir-548a-3]	-0.644	-1.16	-0.786	-1.76	-1.82
ACGUCUGGCCGCGUGCGCAUGU [hsa-mir-3175]	1.55	-0.222	-0.244	0.838	1.89
GGUUCUUCCCGAAGC [hsa-mir-4710]	0.205	-0.0117	-0.22	0.0409	-0.359
CAUCACUGGAAUGUUCCAGCGACU [hsa-mir-3654]	-0.704	-0.233	-0.469	-0.267	-0.17
CCUGUUUGAAUAUUUCACCAGAAACAGG [hsa-mir-4433b]	1.2	-0.311	-0.044	-0.402	-0.74
AUGAUAUAUUGUGAGAGCCAUGUCAU [hsa-mir-6718]	0.0796	0.0536	-0.0702	-0.0603	-0.393
CUCAAUGUAGUCUUGUAAGGAACAGGUUGAAG [hsa-mir-595]	0.711	-0.166	0.34	0.268	0.908
AGUGGAAAAAGUUCUUUUCUUCCUCU [hsa-mir-3192]	0.387	0.0782	0.895	0.0678	-0.263
AGCCCUGUUGUUGUAAGAUAGUGU [hsa-mir-550a-1]	-0.249	-0.325	-0.124	-0.00359	0.346
AGAUCACUUUUCUGCACUGGACAGUGAUCU [hsa-mir-3686]	-0.182	-0.65	-0.462	-0.904	-0.833
UGGCCUGGCAGUGCGUCGGAAGAACAGGGCGGGUGGGGCC [hsa-mir-4792]	2.84	4	3.11	3.93	3.57
GCUUGGAGCCUUGGUAGGGAAGCAAGCUGAGGAGAUAGGA [hsa-mir-7154]	1.23	1.22	0.627	1.57	1.92
GUGGGUCAAGUUUAGAGAUGCACCAAC [hsa-mir-490]	0.572	1.32	0.519	1.43	1.5
GCCAGACAUGCUCUUGC [hsa-mir-6894]	-1.34	-0.504	-0.349	-0.472	0.707
CCCGGCCGGCAGCCCCCGGCCUUAAAGCGCGGG [hsa-mir-4741]	0.653	-0.112	0.194	0.228	2.16
AUCACUGAAAUAUGUCUGAGCUUCUGUU [hsa-mir-4501]	-0.332	-0.584	-0.00263	-0.658	-0.302
CACUCAGUAAAUAUUUGUUGAGUG [hsa-mir-1271]	0.231	-0.368	-0.186	-0.674	-1.18
UCAGGCUUUAAUGUUUGAAGUAAUGUCAGU [hsa-mir-6874]	0.286	0.511	0.146	0.555	0.228
ACCUCCUGGCUUUUCCUCUGCAGCAUGGCUCGGACCUAGUGCAAUGUUUAAGCU [hsa-mir-6826]	-0.435	0.104	0.506	0.659	0.769
UCAGCUGUAAUACAUGGAUUGGCUGG [hsa-mir-30b]	0.592	-0.368	-0.198	-0.379	-0.252
UGGAGCUAGACCACAUGGGUUCA [hsa-mir-5100]	-0.932	-0.111	-0.115	-0.131	0.244

Sequence	pull-down binding Z-score [1]	pull-down binding Z-score [2]	pull-down binding Z-score [3]	pull-down binding Z-score [4]	pull-down binding Z-score [5]
GUGUAUGGGCUGAGCCUUGC [hsa-mir-6805]	0.279	-0.021	0.0312	0.44	0.868
AGGCAUUAGGAUCCUUAUUCUUGCCU [hsa-mir-4788]	-0.175	-0.238	-0.442	-0.559	-0.364
AUCAGGCAGUUUCCUG [hsa-mir-4289]	-1.29	-0.305	0.101	-0.16	0.0394
UGCCUACUACUGAUGACAUACAAUGUAAGUGCUCAUUUAGGCG [hsa-mir-5696]	-0.861	-0.702	-0.289	-0.71	-0.201
CCAUUAUUUUUAAUAAUUAUAAUAAUGG [hsa-mir-548s]	0.705	0.0929	-0.237	-0.233	-1.2
AUUGGAUGGAGUCAGGUCUCUAAU [hsa-mir-200b]	0.359	-0.126	0.101	0.26	0.568
CUAUGGCCCCCCUCCUCUCUGAAAGCAAGGCCACUUG [hsa-mir-8081]	-1.13	0.3	0.282	0.738	0.982
AGUCACUUACACUACAUGUCACU [hsa-mir-892a]	-0.82	-0.926	-0.63	-1.08	-0.587
AUAUAAAAUGCAAUUA [hsa-mir-3945]	-1.21	0.256	0.327	0.0171	-0.448
GGUUGCUGGAGGUCAGC [hsa-mir-6871]	0.0274	0.155	0.233	0.489	0.785
GUCACAAAUUCAAAUAAAGUGAG [hsa-mir-4693]	-1.04	1.05	0.544	1.03	0.598
GGCGCUGGGACCCCACUAGGGUGGCGCC [hsa-mir-4488]	1.6	1.33	0.254	1.25	0.687
CGGUACCCACUGCUGAGGGUGGGGACCA [hsa-mir-3691]	-0.0994	0.628	-0.291	0.55	0.687
CACUUUCUGCUCUCUGGUGAAAGUG [hsa-mir-371a]	0.951	0.0211	-0.0736	-0.0106	-0.309
ACAGUUUGAGGGUCUAUGAUACCACCCGGUACAGGAGAUAACUGU [hsa-let-7g]	0.817	-0.508	-0.136	-0.0397	0.988
CUUGCAGAAUUAAUGGAAUGCUG [hsa-mir-676]	-1.73	0.253	0.0539	0.41	0.28
AAGCUGACAGACAGCUG [hsa-mir-5691]	1.16	-0.057	-0.398	0.144	0.218
UUUUCUUAAAUUGUAUAAAGAGAAAU [hsa-mir-944]	-0.343	-0.406	-0.156	-0.741	-0.622
UUGUGAUGUUUACCGUUUAAAUCCACGG [hsa-mir-125b-1]	-0.878	0.0416	-0.313	0.107	0.078
AGUGCUAGGACACU [hsa-mir-374c]	-0.247	-0.441	-0.413	-0.616	-0.579
GUGUUUGUGACAUAAUUUGU [hsa-mir-325]	-1.02	0.174	0.252	0.0205	-0.231
AACUCCUGCGAGUCCCUGGAGUU [hsa-mir-1258]	0.214	0.16	-0.146	-0.0874	-0.163
UCGAGAGGUCAGAGGAUUGCUCCUGA [hsa-mir-5585]	3.56	0.00526	-0.227	0.496	1.67
UUGAUGUCAGAAUGAGGUGUACCAA [hsa-mir-4714]	1.29	-0.499	0.1	-0.148	-0.099

Reference: the supplement of paper PMC11865577
